Test results from patent US20250051759A1, “METHODS AND MOLECULES FOR RNA INTERFERENCE (RNAi)” (BOEHRINGER INGELHEIM INTERNATIONAL GMBH, priority 2021, published 2025).
Entries after “also recorded” stand apart in the source; their conditions may differ.

Legend:
RN2 (AML) cells = experiment: Competitive proliferation assay; assay type: cell-based, mouse; conditions: monitored for 8 days, no endogenous target gene
Protocol: (§1) The 3 best-performing ARTi-shRNAmirs were analyzed for their effects on proliferation of diverse mouse cell lines originating from different tissues. This experimental step monitors potential off-target effects. Should an off-target, relevant to the proliferative capacity be knocked down, a decrease in cellular fitness would be expected. NIH 3T3 (embryonic fibroblasts), EPP2 (PDAC) and RN2 (AML) cells were transduced with ARTi-shRNAs or validated control shRNAs. Subsequently, the percentage of shRNA expressing cells was monitored via flow cytometry in regular intervals for 8 days in competitive co-culture assays. For competitive proliferation assays, NIH 3T3, EPP2 and RN2 cells were retrovirally transduced with shRNAmir expression plasmids and initial infection levels were determined by flow cytometry based on mCherry expression 4 days post transduction (Day 0). The percentage of infected cells was then further monitored in regular intervals to determine the effects of shRNA expression in the absence of an endogenous target gene for the ARTi-shRNAmirs.

[1] = test system: NIH 3T3, EPP2 and RN2 cells; experiment: Competitive proliferation assays, result stated for all cell lines together; assay type: cell-based, mouse; conditions: all tested cell lines, competitive co-culture
Protocol: as §1

[2] = test system: NIH 3T3, EPP2 and MR125 cells; experiment: Transcriptional profiling (QuantSeq) for off-target effects; assay type: cell-based, mouse; conditions: cells expressing ARTi-shRNAs vs empty vector control, no target gene expression
Protocol: To directly quantify off-target effects of the top 3 ARTi-shRNAs, transcriptome profiling in NIH 3T3, EPP2 and MR125 cells expressing ARTi-shRNAs or empty vector control was performed. For the unbiased identification of ARTi shRNA off-targets NIH-3T3, EPP2 and MR125 cells were retrovirally transduced with shRNAmir expression plasmids and selected for shRNA expression using G418 Sulfate (0.5 mg/mL for EPP2 and NIH 3T3 and 1 mg/mL for MR125, respectively; Gibco). 1.5×106 (NIH 3T3 and EPP2) or 2×106 (MR125) cells were pelleted, washed with PBS, lysed, treated with DNAse I and whole RNA was extracted using magnetic beads (in-house) and a KingFisher Duo Prime Purification System (ThermoFisher). Next generation sequencing libraries were prepared using QuantSeq 3′ mRNA-Seq Library Prep Kit (Lexogen) according to manufacturer's instructions and sequenced on a HiSeq2500 platform (Illumina).
RefSeq genes and 3′-UTR annotations were prepared from the UCSC table browser (https://genome.ucsc.edu/cgi-bin/hgTables, May 2016). […] Reads were aligned to the GRCm38 primary assembly using Slamdunk v0.2.410 in QuantSeq mode (slamdunk map-5 12-n 100-q) and alignments were filtered to recover multimappers with the acquired 3′-UTR set (slamdunk filter-b). Reads were quantified against said 3′-UTR annotation using featureCounts v1.5.0-p211 using stranded counting and counting multimapping reads (−M ˜s 1). […]

EGFR^del19::dsRed::ARTi = experiment: Western blot of doxycycline induced knockdown in PC-9 cells; assay type: cell-based; conditions: endogenous EGFR knocked out, doxycycline induced expression
Protocol: The EGFR^del19::Linker::dsRed::ARTi construct was transduced into EGFR^del19dependent PC-9 cells. The endogenous EGFR gene was then knocked out using CRISPR/Cas9, making the PC-9 cells dependent on EGFR^del19::dsRed::ARTi. PC-9 cell pellets for different genetic backgrounds and treatments were lysed in triton lysis buffer, sonicated, and stored at −80° C. until for protein detection, the pellets were thawed on ice, followed by 15 minutes centrifugation at 13,000 rpm at 4° C. Then, cell lysates were loaded onto a 12% pre-casted SDS-polyacrylamide gel electrophoresis and proteins were transferred onto a nitrocellulose membrane and PDVF-membrane, respectively. Both membranes were probed with the respective primary antibodies overnight. The next day, the secondary antibodies conjugated with fluorescent dye were added and the proteins were detected by the Odyssey detection system.

Molecule | growth compared to non-transduced cells in competitive co-culture (RN2 (AML) cells) | growth compared to non-transduced cells in competitive co-culture (RN2 (AML) cells; listed as ARTi.6634) | percentage of shRNA expressing cells over time / toxicity [1] | transcriptional effects / responses (principal component analysis) [2] | EGFR^del19::dsRed::ARTi protein levels (EGFR^del19::dsRed::ARTi)
ARTi-shRNA 6634: ARTi-shRNAmir, antisense RNA UUCGAUUAAAACAUCAUCCGGA (SEQ ID NO: 10), 97 mer SEQ ID NO: 22 (nucleic acid) UGCUGUUGACAGUGAGCGCCCGGAUGAUGUUUUAAUCGAAUAGUGAAGCCACAGAUGUAUUCGAUUAAAACAUCAUCCGGAUGCCUACUGCCUCGGA | growth disadvantage; also recorded: adverse effect | considerable growth disadvantage | – | – | –
ARTi-shRNA 6786: ARTi-shRNAmir, antisense RNA UUCGUAUACAAUAUCAUCCGGA (SEQ ID NO: 12), 97 mer SEQ ID NO: 24 (nucleic acid) UGCUGUUGACAGUGAGCGCCCGGAUGAUAUUGUAUACGAAUAGUGAAGCCACAGAUGUAUUCGUAUACAAUAUCAUCCGGAUGCCUACUGCCUCGGA | – | – | no considerable toxicity | only mild transcriptional responses | –
ARTi-shRNA 6570: ARTi-shRNAmir, antisense RNA UUCGAUAACAAUAUCAUCCGGA (SEQ ID NO: 6), 97 mer SEQ ID NO: 18 (nucleic acid) UGCUGUUGACAGUGAGCGCCCGGAUGAUAUUGUUAUCGAAUAGUGAAGCCACAGAUGUAUUCGAUAACAAUAUCAUCCGGAUGCCUACUGCCUCGGA | – | – | no considerable toxicity | only mild transcriptional responses | reduction
